The text below walks through data of US20080201790A1, “Method and product for regulating cell responsiveness to external signals” (priority 1993, published 2008).

Data set [1] deals with p42 and p44 forms of MAPK. As to the kind of experiment: Phosphorylation of p42 and p44 MAPK in COS cells transfected with MEKK 1 or MEKK 3. Particulars: forty-eight hours after transfection. Type of data set: cell-based. The protocol: (§1) COS cells were transfected with the expression plasmid pCVM5 ligated to cDNA clones encoding either MEKK 1 or MEKK 3 protein, or a control pCVM5 plasmid lacking MEKK cDNA inserts. Forty-eight hours after transfection, the COS cells were lysed and the lysate fractionated on a Mono Q FPLC column using conditions described in Example 4. The fractions were analyzed for tyrosine phosphorylation of MAP kinase-like enzymes using the kinase assay described in Example 4.

The subject of another data set is c-Jun kinase (JNK). The data set can be described thus: JNK activity in HEK293 cells transfected with MEKK 2 or 3. Type of data set: cell-based. Particulars: for selectivity in activating JNK versus p42/44 MAPK: plasmid DNAs titrated over a range of concentrations; for c-Jun kinase (JNK) activity: transient expression in HEK293 cells. The protocol: JNK activity was measured using GSTc-Jun1-79) coupled to glutathione Sepharose 4B. Cells transfected with MEKK2 or 3 and control transfected cells were lysed in 0.5% Nonidet P-40, 20 mM Tris HCl, pH 7.6, 0.25 M NaCl, 3 mM EDTA, 3 mM EGTA, 1 mM dithiothreitol, 1 mM PMSFm 2 mM sodium vanadate, 20 ug/ml aprotinin, and 5 ug/ml leupeptin. Nuclei were removed by centrifugation at 15,000×g for 10 min and the supernatants (25 ug of protein) were mixed with 10 ul of a slurry of GST c-Jun(1-79) Sepharos (3-5 ug of GST cJun(1-79). The mixture was rotated at 4° C. for 1 h, washed twice in lysis buffer and once in kinase buffer (20 mM Hepes, pH 7.5, 10 mM MgCl2, 20 mM β-glycerophosphate, 10 mM p-nitrophenyl phosphate, 1 mM dithiothreitol, 50 uM sodium vanadate). Beads were suspended in 40 ul of kinase assay buffer containing 10 uCi of [γ32P]ATP and incubated at 30° C. for 20 min. Reaction mixtures were added to Laemmli sample buffer, boiled, and phosphorylated proteins were resolved on SDS-10% polyacrylamide gels. The JNK activity also eluted early from a Mono Q column using a linear sodium chloride elution gradient. […] When JNK activity was assayed following fractionation by Mono Q ion exchange chromatography, 50 ul of each fraction was incubated with the GST cJun(1-79) beads.

In a further data set the test system is p38 MAPK. As to the kind of experiment: Tyrosine phosphorylation of p38 MAPK in COS cells transfected with MEKK 1 or MEKK 3. The class given is cell-based. The note with it: forty-eight hours after transfection. The method, then:
as §1

The next data set addresses T1, JNKK (Homo sapiens, UniProt P45985).
T1 sequence (P45985 1-399): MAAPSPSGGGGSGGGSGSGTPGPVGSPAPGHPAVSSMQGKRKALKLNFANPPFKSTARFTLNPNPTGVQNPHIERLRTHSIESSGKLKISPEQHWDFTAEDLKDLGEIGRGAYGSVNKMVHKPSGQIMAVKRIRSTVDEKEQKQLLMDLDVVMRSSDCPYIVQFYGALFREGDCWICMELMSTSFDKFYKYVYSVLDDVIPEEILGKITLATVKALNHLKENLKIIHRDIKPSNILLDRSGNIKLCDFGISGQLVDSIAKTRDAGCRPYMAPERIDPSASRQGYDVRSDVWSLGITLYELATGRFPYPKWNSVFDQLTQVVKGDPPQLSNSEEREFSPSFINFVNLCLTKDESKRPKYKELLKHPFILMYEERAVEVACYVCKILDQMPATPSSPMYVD
The data set can be described thus: In vitro kinase assay of immunoprecipitated HA-tagged MEKK with recombinant JNKK. The class given is biochemical. Particulars: 12CA5 immunoprecipitates. The method, then:
(§2) MEKK 2 Phosphorylates Both MEK 1 and JNK Kinase in Vitro. HEK293 cells expressing MEKK 2 and 3 were lysed in !% Triton x-100, 0.5% Nonidet P-40, 20 mM Tris HCL, pH 7.5, 150 mM NaCl, 20 mM NaF, 0.2 mM sodium vanadate, 1 mM EDTA, […], 1 mM EGTA, 5 mM PMSF. Nuclei were removed by centrifugation at 15,000×g for 5 min. HA epitope-tagged MEKK2 and 3 were immunoprecipitated with the 12CA5 antibody recognizing the HA epitope-tag. The immunoprecipitates were washed twice in lysis buffer, twice in PAN (10 mM Pipes, pH 7.0, 100 mM NaCl, 20 ug/ml aprotinin), suspended in 20 mM Pipes, 10 mM MnCl2, 20 ug/ml aprotinin, and used in an in vitro kinase assay with 20-50 ng of recombinant MEK1 or JNKK as substrates and 20 uCi of [γ^32P]ATP. Reactions were terminated by the addition of Laemmli sample buffer, boiled, and proteins were resolved by SDS-10% PAGE.
Incubations were for 30 min at 30° C. in the presence of 50 uM ATP. GST-cJun (1-79) Sepharose beads were then added, and the mixture was rotated at 4° C. for 30 min. The beads were washed, suspended in 40 ul of c-Jun kinase assay buffer containing 20 uCi of [γ32P]ATP, and incubated for 15 min at 30° C. Reaction mixtures were added to Laemmli sample buffer, boiled, and phosphorylated proteins were resolved on SDS 10% PAGE.

The next data set deals with p38. The data set can be described thus: p38 kinase activity in HEK293 cells transfected with MEKK 2 or 3. The note with it: immunoprecipitation and in vitro kinase assay. Type of data set: cell-based. The method, then: The p38 kinase is activated by hyperosmotic conditions and recognizes the transcription factor ATF 2 as an in vitro substrate. Sorbitol treated (0.4M, 20 min) or control HEK293 cells were lysed in the same buffer as that used for immunoprecipitation of p38 using rabbit antiserum raised against the COOH terminal peptide sequence of p38. Immunoprecipitates were washed once in lysis buffer, once in assay buffer (25 mM Hepes, pH 7.4, 25 mM β-glycerophosphate, 25 mM […], 2 mM dithiothreitol, 0.1 mM sodium vanadate) resuspended, and used in an in vitro kinase assay with a recombinant NH2-terminal fragment of ATF 2 (20-50 ng). For analysis of p38 kinase activity from Mono Q FPLC fractions, 20 ul aliquots were mixed with kinase buffer containing 20-50 ng of recombinant ATF 2 and 10 uCi of [γ32P]PATP. Reactions were quenched in Laemmli sample buffer, boiled, and proteins were resolved using SDS 10% PAGE. […] Mono Q FPLC fractionation of lysates from MEKK 2 or 3 transfected HEK293 cells confirmed that p38 kinase activity was similar to that from control transfected cells. ATF 2 is also a substrate for JNK. Fractions 2-8 from cells transfected with MEKK 2 or 3, that contain immunoreactive JNK, have increased kinase activity toward ATF 2. This is a predicted result based on the ability of both MEKK 2 and 3 to stimulate JNK activity in HEK293 cells. […]

A further data set addresses T2, MEK 1 (Mus musculus, UniProt P31938).
T2 construct: polyhistidine (N); made in house; host or cells: pRSETA vector
The data set can be described thus: In vitro kinase assay of immunoprecipitated HA-tagged MEKK with recombinant MEK1. Particulars: 12CA5 immunoprecipitates. Type of data set: biochemical. The protocol:
as §2

A further data set has as its system c-Jun kinase. As to the kind of experiment: c-Jun kinase activation in transfected COS cells. Type of data set: cell-based. Particulars: expression in COS cells, FIG. 22. The source says: COS cells were transfected with pCMV5 expression plasmid encoding no cDNA insert (control), full length MEKK4 or the truncated MEKK4 encoding only the catalytic kinase domain.

Another data set has as its system p42/44 MAPK. As to the kind of experiment: p42/44 MAPK activity in HEK293 cells transfected with MEKK 2 or 3. Type of data set: cell-based. Particulars: transient expression in HEK293 cells. The method, then:
MAPK activity following Mono Q FPLC fractionation was measured using the epidermal growth factor receptor […] peptide as a selective p42/44 MAPK substrate. Alternatively, for cells transfected with varying amounts of MEKK plasmids, MAPK activity was assayed after elution from DEAE Sephacel columns. […] Thus, even though the kinase domains are approximately 94% conserved, MEKK 2 and 3 differ in their selectivity for regulation of the JNK and p42/44^MAPK pathways. This was particularly evident for MEKK 3 at low plasmid concentrations where the p42/44^MAPK pathway was preferentially activated.

B1: MEKK 3: 626-amino acid MEK kinase protein, SEQ ID No. 10 (protein, listed as Mus musculus)
chain: MDEQEALDSIMKDLVALQMSRRTRLSGYETMKNKDTGHPNRQSDVRIKFEHNGERRIIAFSRPVRYEDVEHKVTTVFGQPLDLHYMNNELSILLKNQDDLDKAIDILDRSSSMKSLRILLLSQDRNHTSSSPHSGVSRQVRIKPSQSAGDINTIYQAPEPRSRHLSVSSQNPGRSSPPPGYVPERQQHIARQGSYTSINSEGEFIPETSEQCMLDPLSSAENSLSGSCQSLDRSADSPSFRKSQMSRARSFPDNRKECSDRETQLYDKGVKGGTYPRRYHVSVHHKDYNDGRRTFPRIRRHQGNLFTLVPSSRSLSTNGENMGVAVQYLDPRGRLRSADSENALTVQERNVPTKSPSAPINWRRGKLLGQGAFGRVYLCYDVDTGRELASKQVQFDPDSPETSKEVSALECEIQLLKNLQHERIVQYYGCLRDRAEKILTIFMEYMPGGSVKDQLKAYGALTESVTRKYTRQILEGMSYLHSNMIVHRDIKGANILRDSAGNVKLGDFGASKRLQTICMSGTGIRSVTGTPYWMSPEVISGEGYGRKADVWSLGCTVVEMLTEKPPWAEYEAMAAIFKIATQPTNPQLPSHISEHGRDFLRRIFVEARQRPSAEELLTHHFAQLVY
As for B1, in data set [1], the “phosphorylation of p42 and p44 MAPK” value is “induces tyrosine phosphorylation”. In addition, in the data set with c-Jun kinase (JNK), the “selectivity in activating JNK versus p42/44 MAPK” value is recorded as “greater selectivity for activating p42/44 MAPK relative to JNK” and the “c-Jun kinase (JNK) activity” value is on record as “stimulation of c-Jun kinase (JNK) activity”. In addition, the “phosphorylation of p38 MAPK” value in the data set with p38 MAPK was “induces tyrosine phosphorylation of p38 MAPK”. Besides, the “phosphorylation of JNKK in vitro” value in the data set with JNKK is listed as “did not show measurable kinase activity toward MEK 1 or JNKK”. Moreover, the p38 kinase activity result in the data set with p38 is “neither MEKK 2 nor MEKK 3 stimulated p38 kinase activity”. For the same molecule, the “phosphorylation of MEK 1 in vitro” value in the data set with MEK 1 is reported as “did not show measurable kinase activity toward MEK 1 or JNKK”. For the same molecule, in the data set on c-Jun kinase, the “activation of the c-Jun kinase pathway” value is on record as “also activate the c-Jun kinase pathway”. For the same molecule, the “p42/44 MAPK activity” value in the data set on p42/44 MAPK was “stimulated p42/44^MAPK activity”.

B2: MEKK 2: 619-amino acid MEK kinase protein, SEQ ID No. 6 / 8 (protein)
chain: MGYPYDVPDYASDDQQALNSIMQDLAVLHKPVGQHYLYKKPGKQNLHHQKNRMMFESNLNIEEEKRILQVTRPVKLEDLRSKSKIAFGQSMDLHYTNNELVIPLTTQDDLDKAVELLDRSIHMKSLKILLVVNGSTQATNLEPSPSPEDLNNTPLGAERKKRLSVVGPPNRDRSSPPPGYIPDILHQIARNGSFTSINSEGEFIPESMDQMLDPLSLSSPENSGSGSCPSLDSPLDGESYPKSRMPRAQSYPDNHQEFTDYDNPIFEKFGKGGTYPRRYHVSYHHQEYNDGRKTFPRARRTQGTSFRSPVSFSPTDHSLSTSSGSSVFTPEYDDSRIRRRGSDIDNPTLTVTDISPPSRSPRAPTNWRLGKLLGQGAFGRVYLCYDVDTGRELAVKQVQFNPESPETSKEVNALECEIQLLKNLLHERIVQYYGCLRDPQEKTLSIFMELSPGGSIKDQLKAYGALTENVTRKYTRQILEGVHYLHSNMIVHRDIKGANILRDSTGNIKLGDFGASKRLQTICLSGTGMKSVTGTPYWMSPEVISGEGYGRKADIWSVACTVVEMLTEKPPWAEFEAMAAIFKIATQPTNPKLPPHVSDYTRDFLKRIFVEAKLRPSAEELLRHMFVHYH
For B2, in the data set on c-Jun kinase (JNK), the “selectivity in activating JNK versus p42/44 MAPK” value was “greater selectivity for stimulation of the JNK pathway” and the “c-Jun kinase (JNK) activity” value is “stimulation of c-Jun kinase (JNK) activity”. For the same molecule, the “phosphorylation of JNKK in vitro” value in the data set with JNKK is “clearly phosphorylates both MEK 1 and JNKK”. For the same molecule, the p38 kinase activity result in the data set on p38 is on record as “neither MEKK 2 nor MEKK 3 stimulated p38 kinase activity”. In addition, the “phosphorylation of MEK 1 in vitro” value in the data set with MEK 1 is “clearly phosphorylates both MEK 1 and JNKK”. For the same molecule, in the data set with c-Jun kinase, the “activation of the c-Jun kinase pathway” value is given as “also activate the c-Jun kinase pathway”. The “p42/44 MAPK activity” value in the data set on p42/44 MAPK is “stimulated p42/44^MAPK activity”.
